This is an account of results in article PMC10359615.

The target in this data set is APE1Dead (catalytically dead APE1) D210N;E96Q (human) (UniProt P27695). Kind of data set: EMSA. To be noted: EMSA: 50 mM Tris pH 8, 1 mM EDTA, 0.2 mg/ml BSA, 1 mM DTT, 5% sucrose, room temperature, 5 nM DNA, FRET: 20 mM HEPES pH 7.5, 150 mM KCl, 5 mM MgCl2, 5 mM …. (Mobility shift assays separate free from complexed probe on a gel.)
Chain of APE1Dead (catalytically dead APE1) D210N;E96Q (human) (P27695 whole entry E96Q/D210N): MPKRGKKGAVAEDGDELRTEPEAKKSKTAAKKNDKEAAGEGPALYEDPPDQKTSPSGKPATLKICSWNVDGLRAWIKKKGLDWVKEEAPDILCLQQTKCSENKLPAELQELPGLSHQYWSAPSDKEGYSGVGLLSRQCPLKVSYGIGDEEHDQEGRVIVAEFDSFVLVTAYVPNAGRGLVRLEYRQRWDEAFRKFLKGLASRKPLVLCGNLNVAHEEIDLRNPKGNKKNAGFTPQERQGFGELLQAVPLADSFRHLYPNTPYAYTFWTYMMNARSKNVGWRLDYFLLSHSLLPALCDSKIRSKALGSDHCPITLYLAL

For the substance “CTCAACACTTAACTA / TGGATGATGACTCTTCTGCGTTCGCTGATGCGCCGACGGTAGTTAAGTGTTGAG [Rec-PTJ, abasic site 7 nt from junction (FAM)]”, the Kd (THF abasic analog 7 nt from the 3' ds-ss junction) turned out to be 0.7 nM.
For the substance “CTCAACACTTAACTACCGTCG / TGGATGATGACTCTTCTGCGTTCGCTGATGCGCCGACGGTAGTTAAGTGTTGAG [PTJ, abasic site at junction (FAM)]”, for the setting “THF abasic analog directly next to the 3' ds-ss junction”, the Kd was 1.2 nM.
Turning to “GCTGATGCGCNCGACGGATCC [abasic ssDNA 21-mer]”, the Kd (1 mM EDTA, Kd,app, N11 = tetrahydrofuran abasic analog (THF)) came to 22 nM.
For abasic dsDNA, the Kd (1 mM EDTA, Kd,app, THF abasic analog) is 0.4 nM.
